Assay results published in patent US20220372154A1 (APEXIGEN, published 2022).

T1: human TNFR2-His tagged protein (soluble) (human, UniProt P20333 23-257)
T1 construct: also called hTNFR2 (soluble); soluble TNFR2-His; not shown: His tag
T1 sequence (looked up): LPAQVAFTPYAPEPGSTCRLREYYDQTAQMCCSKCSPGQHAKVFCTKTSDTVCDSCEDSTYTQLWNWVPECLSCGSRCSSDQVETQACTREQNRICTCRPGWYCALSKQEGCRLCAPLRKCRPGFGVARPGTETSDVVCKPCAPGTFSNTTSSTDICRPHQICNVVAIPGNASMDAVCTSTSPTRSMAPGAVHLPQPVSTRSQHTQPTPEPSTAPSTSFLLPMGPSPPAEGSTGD

T2: cynomolgus TNFR2-His tagged protein (cynomolgus, UniProt A0A2K5VET2 132-366)
T2 construct: also called Cyno TNFR2; cynomolgus TNFR2 protein; not shown: His tag
T2 sequence: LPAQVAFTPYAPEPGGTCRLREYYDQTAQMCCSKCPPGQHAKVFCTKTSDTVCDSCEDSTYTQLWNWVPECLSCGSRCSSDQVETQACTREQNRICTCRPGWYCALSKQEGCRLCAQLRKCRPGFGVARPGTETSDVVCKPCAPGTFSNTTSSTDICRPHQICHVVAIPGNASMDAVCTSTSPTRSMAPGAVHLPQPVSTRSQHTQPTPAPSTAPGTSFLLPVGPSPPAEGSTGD

T3: TNFR-Fc (UniProt P20333 23-257, limits assumed)
T3 construct: Printed only as TNFR-Fc; not shown: Fc part
T3 sequence (looked up): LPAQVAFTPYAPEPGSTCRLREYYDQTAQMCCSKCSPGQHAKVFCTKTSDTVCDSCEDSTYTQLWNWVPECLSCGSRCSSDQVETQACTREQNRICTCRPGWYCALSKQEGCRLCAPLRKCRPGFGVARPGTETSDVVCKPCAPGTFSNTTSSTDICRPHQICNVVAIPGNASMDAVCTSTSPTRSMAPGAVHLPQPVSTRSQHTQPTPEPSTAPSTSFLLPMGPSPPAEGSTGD

T4: TNFR2 CRD4 peptide (peptide 5; aa 146-174 of mature TNFR2) (human)
T4 construct: Range counted on mature TNFR2; also called peptide five; bin 5
T4 peptide: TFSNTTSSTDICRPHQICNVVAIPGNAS

T5: human TNFR2 expressed on cells (human, UniProt P20333 23-461)
T5 construct: whole, on cells; also called hTNFR2 (cell); CHO-TNFR2
T5 sequence (looked up): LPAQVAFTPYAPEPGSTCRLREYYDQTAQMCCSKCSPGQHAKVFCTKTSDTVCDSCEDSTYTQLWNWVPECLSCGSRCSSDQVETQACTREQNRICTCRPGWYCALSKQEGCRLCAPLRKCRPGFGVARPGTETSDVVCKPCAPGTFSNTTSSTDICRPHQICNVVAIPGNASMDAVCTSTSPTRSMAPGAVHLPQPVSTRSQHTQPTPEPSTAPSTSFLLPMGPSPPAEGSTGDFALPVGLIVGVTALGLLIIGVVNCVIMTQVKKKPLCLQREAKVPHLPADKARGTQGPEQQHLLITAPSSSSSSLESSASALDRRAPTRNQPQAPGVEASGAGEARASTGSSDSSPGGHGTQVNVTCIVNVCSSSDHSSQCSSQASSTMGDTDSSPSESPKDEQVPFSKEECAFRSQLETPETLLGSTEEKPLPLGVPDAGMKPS

T6: soluble mouse TNFR2 (mouse, UniProt P25119 23-258, limits assumed)
T6 sequence (looked up): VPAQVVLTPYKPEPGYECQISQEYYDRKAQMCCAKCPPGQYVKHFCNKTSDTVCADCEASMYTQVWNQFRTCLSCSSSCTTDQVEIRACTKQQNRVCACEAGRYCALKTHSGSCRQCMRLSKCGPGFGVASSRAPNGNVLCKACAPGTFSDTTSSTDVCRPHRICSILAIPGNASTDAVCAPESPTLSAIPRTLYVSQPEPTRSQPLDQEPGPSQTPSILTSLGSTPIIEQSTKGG


Tests used:
[1] = biological target: T1, human TNFR2-His tagged protein (soluble); experiment: ELISA on coated human TNFR2-His
Description: (§1) In FIGS. 3A-3B, human (3A) or cynomolgus (3B) TNFR2-His tagged protein was coated on 96-well ELISA plates at 1 μg/mL and incubated overnight at 4° C. Plates were washed and blocked using 1% BSA. Antibodies were added for 1 hour at room temperature (RT), washed, and detected using anti-Human HRP. Assay was developed using TMB substrate for 3-5 minutes. In FIG. 3C, FACS binding was performed on CHO cells that were engineered to express human TNFR2. Briefly, antibodies were incubated with 200,000 cells in MACS buffer for 1 hour followed by wash and detection using anti-human IgG BV421 for 20 minutes. Samples were analyzed using Cytoflex or MACSQuant flow cytometers. In FIG. 3D, ligand blocking ELISA was performed by coating plates with 1 ug/mL TNFR-Fc overnight at 4° C. Plates were washed, blocked and antibodies were incubated for 1 hr at RT. […] Assay was developed using TMB substrate for 5-7 minutes.

[2] = biological target: T2, cynomolgus TNFR2-His tagged protein; experiment: ELISA on coated cynomolgus TNFR2-His
Description: as §1

TNFR-Fc [3] = biological target: T3, TNFR-Fc; experiment: TNF-α blocking ELISA on coated TNFR-Fc
Description: as §1

[4] = biological target: T4, TNFR2 CRD4 peptide (peptide 5; aa …); experiment: peptide-binding ELISA (potential peptide bin)
[5] = biological target: T5, human TNFR2 expressed on cells; experiment: flow cytometry on CHO cells expressing human TNFR2
Description: as §1

soluble mouse TNFR2 = biological target: T6, soluble mouse TNFR2; experiment: binding screen on soluble mouse TNFR2 (mouse cross-reactivity)
[6] = biological target: T2, cynomolgus TNFR2-His tagged protein; experiment: ELISA, cynomolgus TNFR2
[7] = biological target: T1, human TNFR2-His tagged protein (soluble); experiment: ELISA, soluble human TNFR2
TNFR-Fc [8] = biological target: T3, TNFR-Fc; experiment: TNF-α blocking ELISA (soluble)
[9] = biological target: T5, human TNFR2 expressed on cells; experiment: flow cytometry, cell-expressed human TNFR2
[10] = biological target: T5, human TNFR2 expressed on cells; experiment: cell binding on TNFR2-overexpressing (OE) cells

Binder | EC50 [1] | EC50 [2] | IC50 (TNFR-Fc [3]) | binding result [4] | EC50 [5] | binding result (soluble mouse TNFR2) | EC50 [6] | EC50 [7] | IC50 (TNFR-Fc [8]) | EC50 [9] | Kd [10]
chimeric antibody clone 25-31 (rab600_25_31) (antibody, V domains shown) VH: QEQLKESGGGLVTPGTPLTLTCTASGFSLSSYDMSWVRQAPGKGLEWIGYIWSSGSAYYATWAEGRFTISKTSTTVGLKITSPTTEDTATYFCARRYVGSSYDTWGQGTLVTVSS VL: AVLTQTPSPVSAAVGGTVTISCQSSQSVSNNNYLSWYQQKPGQPPKLLIYAASYLASGVPPRFSGSGSGTQFTLTISGVQCDDAATYYCLGDYDNDIDHAFGGGTEVVVK | 0.0704 nM | 0.038 nM | 4.13 nM | binds | 3.15 nM | no binding | – | – | – | – | –
chimeric antibody clone 24-25 (rab600_24_25) (antibody, V domains shown) VH: QSLEESGGGLVKPEGSLTLTCAVSGFDLNSYYWICWARQAPGKGLEWIACIDGGSTGSAYYASWAKGRLSISKASSTTVTLQMTSLTAADTATYFCARVQSYVGYANYGYPNYFNLWGPGTLVTVSS VL: IEMTQTPSSVSAAVGGTVTINCQSSEDIDSYLAWYQQKPGQPPKLLIYHASYLTSGVPSRFSGSRSGTEFTLTISDLECDDAATYYCQSAYYSSSADNTFGGGTEVVVK | 0.21 nM | 0.189 nM | – | binds | – | binds | – | – | – | – | –
humanized antibody clone 4 (taken as h600_23_4) (antibody, V domains shown) VH: EVQLVESGGGLVQPGGSLRLSCAASGIDLSSYTMGWVRQAPGKGLEWVGFISSSGHTYYANWAKGRFTISRDNSKNTLYLQMNSLRAEDTAVYYCAREGGYGGYDYTGIFNLWGQGTLVTVSS VL: DIQMTQSPSTLSASVGDRVTITCQATESISSWLAWYQQKPGKAPKLLIYGASTLESGVPSRFSGSGSGTEFTLTISSLQPDDFATYYCQQGYIYTNVDNTFGGGTKVEIK | – | – | – | – | – | – | 0.34 nM | 0.111 nM | 3.57 nM | 1.13 nM | –
humanized antibody h600_23_24_H (antibody, V domains shown) VH: EVQLVESGGGLVQPGGSLRLSCAASGFSLNSYGVNWVRQAPGKGLEWVGGINTGGSTYYANWAKGRFTISRDNSKNTLYLQMNSLRAEDTAVYYCARTSGNNVYNYFTLWGQGTLVTVSS VL: DIQMTQSPSSLSASVGDRVTITCQASQSIPSLLAWYQQKPGKAPKLLIYAPSTLASGVPSRFSGSGSGTDFTLTISSLQPEDFATYYCQSYYYGDNTYNNIFGGGTKVEIK | – | – | – | – | – | – | 0.091 nM | 0.142 nM | – | 1.99 nM | 1.5 nM
chimeric antibody clone 24-124 (rab600_24_124) (antibody, V domains shown) VH: QEQLVESGGGLVTLGGSLKLSCKASGIDFSSYGISWVRQAPGKGLEWIAYIYPDYGSTDYATWVNGRFTISLDNAQNTVFLQMTSLTAADTATYFCASGYASSSGYYDPKYFGLWGPGTLVTVSS VL: IKMTQTPASVSAAVGGTVTINCRASEDIESYLAWYQQKPGQPPKLLIYDASDLASGVPSRVKGSGSGTEFTLTISGVRCDDAATYYCQHGFYTSRSDSVFGGGTEVVVK | 0.137 nM | 0.0882 nM | 2.54 nM | binds | 0.179 nM | no binding | – | – | – | – | –
chimeric antibody clone 24-2 (rab600_24_2) (antibody, V domains shown) VH: QEQLEESGGGLVQPEGSLALTCKASGFSFSVSYWICWVRQAPGKGLEWIACTDGGDGSSYYASWVNGRFTISKISSTTVTLQMTSLTAADTAIYFCARDRSDVFNLWGPGTLVTVSS VL: DIVMTQTPASVEAAVGGTVTIKCQAGQSIDSNLAWYQQKPGQPPKLLIYRASTLASGVPSRFKGSGSGTEFALTISDLECADAATYFCQSFYVTISAMVDYPFGGGTEVVVK | 0.0981 nM | 0.0742 nM | – | binds | – | no binding | – | – | – | – | –
chimeric antibody clone 25-10 (rab600_25_10) (antibody, V domains shown) VH: QSVEESGGRLVAPGTPLTLTCTVSGIDLSRYAMAWVRQAPGKGLEYIGYIDTGDSTYYATWAKGRFTISRTSTTVHLKIASPTTEDTATYFCTNVGVRMYLWGPGTLVTVSS VL: DVVMTQTPASVEAAVGGTVTIKCQASQSISSYLSWYQQKPGQPPKLLIYRASTLESGVPSRFKGSGSGTEFTLTISDLECADAATYYCQCGYYGGSYIGAFGGGTEVVVK | 0.0862 nM | 0.0235 nM | – | binds | 0.513 nM | binds | – | – | – | – | –
chimeric antibody clone 25-103 (rab600_25_103) (antibody, V domains shown) VH: QEQLKESGGGLVTPGTPLTLTCTVSGIDLSSYAMGWVRQAPGKGLEYIGFIDTGGSTYYANWAKGRFTISRTSTTVDLKIASPTTEDAATYFCANVGARMYLWGPGTLVTVSS VL: DVVMTQTPASVEAAVGGTVTINCQASQSISNLLAWYQQKPGQPPKLLIYRASTLESGVPSRFKGSGSGTEFTLTISDLECADAATYYCQCSYYGGSYIGAFGGGTEVVVK | 0.0443 nM | 0.000348 nM | – | binds | 0.946 nM | binds | – | – | – | – | –
chimeric antibody clone 24-97 (rab600_24_97) (antibody, V domains shown) VH: QSLEESGGDLVKPGASLTLTCKASGFSFSSGHDMCWVRQAPGKGLEWIACIYPDYDITDYASWVNGRFTISLDNAQNTVFLQMTSLTAADTATYFCARSGYGGFRYGFNLWGPGTLVTVSS VL: DIVMTQTPASVEVAVGGTVTIKCQASEDIENYLAWYQQKPGQPPKLLIYDASDLTSGVPSRFKGSGSGTQFTLTISDLECADAATYYCQSVYYTSSDNYNNAFGGGTEVVVK | 0.0632 nM | 0.086 nM | – | binds | – | binds | – | – | – | – | –
chimeric antibody clone 24-62 (rab600_24_62) (antibody, V domains shown) VH: QSLEESGGDLVVPGTSLTLTCTASGFDLSSFYYMCWVRQAPGKGLEWIACIYAVSSGSTYYASWAKGRFTVSRTSSTTATLQMTSLTAADTATYFCARHQSYETYGYVGVVYATYFSLWGPGTLVTVSS VL: ALVMTQTPASVSAAVGGTVTINCQASEDIDSYLAWYQQKPGQPPKLLIYYASYLTSGVPSRFKGSGSGTEYTLTISGVQCDDAATYYCQSAFYSNNTETAFGGGTEVVVK | 0.137 nM | 0.0958 nM | – | binds | – | binds | – | – | – | – | –
